These results are taken from PMC12615815, “GroEL/ES chaperonin unfolds then encapsulates a nascent protein on the ribosome” (Nature Communications, 2025).

Test [1] deals with RNC_(1-510mut): stalled 70S ribosome:nascent chain complex with β-galactosidase 1-510 carrying I141N and G353D (E. coli). The test can be described thus: co-sedimentation; RNC with GroEL, no GroES and no ATP/BeFx; pellet quantified by iBAQ mass spectrometry, normalised to the average of the ribosomal proteins; n = 3.
Test [2] shares this target. The test can be described thus: co-sedimentation; RNC first incubated with GroEL and GroES (20 min, 30 °C), then 1 mM ATP, 1 mM BeSO4, 10 mM NaF (10 min, 30 °C); 35% sucrose cushion; pellet by immunoblot (GroEL, GroES, S2) and iBAQ mass spectrometry. On the technique in general: In western blotting, separated proteins are transferred to a membrane and probed.
The target of test [3] is T1, Ribosomal stalk protein L7/L12 (E. coli, UniProt P0A7K2 1-121).
T1 construct: ribosomal protein L7/L12, E. coli, as part of the ribosome; Cross-linked while part of the 70S ribosome or RNC; also called stalk complex; source: endogenous, in E. coli 70S ribosomes (bought: NEB) and in RNCs purified from E. coli
The test can be described thus: cross-linking; XL-MS: RNC_(1-510mut) with 5 µM GroEL and 10 µM GroES, then 1 mM ATP, 1 mM BeSO4, 10 mM NaF; 1 mM DSBU 1 h at 25 °C. To be noted: both partners purified.

Consider “GroEL (V381W, A384W, V387W) (from UniProt P0A6F5 2-525) (natural protein)”, for which the results for the stoichiometry N (GroEL subunits per ribosome) in test [1] and in test [2] were 9.8 and 6.7, respectively.

B1: GroES (L49W) (natural protein, E. coli, UniProt P0A6F9 1-97, looked up)
chain: MNIRPLHDRVIVKRKEVETKSAGGIVLTGSAAAKSTRGEVLAVGNGRIWENGEVKPLDVKVGDIVIFNDGYGVKSEKIDNEEVLIMSESDILAIVEA
notes: GroES, E. coli co-chaperonin subunit (10.5 kDa as printed); tryptophan mutant used for quantification; also called GroES 7-mer; source: E. coli BL21(DE3), purified (StrepTactin, 3C cleavage, Superdex 200, GSTrap); not shown: double StrepII, N-terminal, cleaved
Consider B1, for which, in test [3], the binding result is given as “binds”.
